Experimental data reported in article PMC11850223.

What was measured:
Hera [1] = biological target: T1, Hera (Thermus thermophilus, UniProt O07897 1-510); test: stopped-flow fluorescence
T1 sequence: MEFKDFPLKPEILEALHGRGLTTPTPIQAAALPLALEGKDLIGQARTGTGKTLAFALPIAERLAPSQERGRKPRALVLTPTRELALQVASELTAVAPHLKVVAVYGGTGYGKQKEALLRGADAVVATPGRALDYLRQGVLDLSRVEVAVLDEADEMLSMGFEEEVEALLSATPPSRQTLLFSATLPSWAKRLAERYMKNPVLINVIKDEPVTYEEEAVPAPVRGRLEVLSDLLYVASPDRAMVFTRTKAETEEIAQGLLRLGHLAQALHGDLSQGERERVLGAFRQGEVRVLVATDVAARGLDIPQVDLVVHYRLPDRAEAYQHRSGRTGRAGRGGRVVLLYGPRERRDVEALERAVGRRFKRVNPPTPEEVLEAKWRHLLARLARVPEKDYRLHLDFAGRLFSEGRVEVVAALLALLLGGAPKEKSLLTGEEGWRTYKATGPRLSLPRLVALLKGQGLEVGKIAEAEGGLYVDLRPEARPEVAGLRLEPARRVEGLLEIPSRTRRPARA

[2] = biological target: T2, Hera/Hera_K51Q heterodimer (Thermus thermophilus, UniProt O07897;O07897 1-510;1-510, K51Q); test: fluorescence anisotropy
T2 sequence 1: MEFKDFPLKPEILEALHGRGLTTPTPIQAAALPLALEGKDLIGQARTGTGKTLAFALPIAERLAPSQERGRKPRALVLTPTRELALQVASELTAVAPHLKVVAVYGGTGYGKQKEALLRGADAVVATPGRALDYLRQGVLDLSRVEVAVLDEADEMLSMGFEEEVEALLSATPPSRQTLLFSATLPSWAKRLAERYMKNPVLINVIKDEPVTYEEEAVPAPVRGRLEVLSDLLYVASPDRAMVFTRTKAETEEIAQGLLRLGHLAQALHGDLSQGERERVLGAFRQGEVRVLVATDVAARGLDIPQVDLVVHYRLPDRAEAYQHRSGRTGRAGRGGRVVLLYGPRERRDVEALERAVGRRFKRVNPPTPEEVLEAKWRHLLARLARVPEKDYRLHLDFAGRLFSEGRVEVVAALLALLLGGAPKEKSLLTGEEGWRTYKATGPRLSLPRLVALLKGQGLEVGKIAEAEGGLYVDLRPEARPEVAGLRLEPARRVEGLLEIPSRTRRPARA
T2 sequence 2: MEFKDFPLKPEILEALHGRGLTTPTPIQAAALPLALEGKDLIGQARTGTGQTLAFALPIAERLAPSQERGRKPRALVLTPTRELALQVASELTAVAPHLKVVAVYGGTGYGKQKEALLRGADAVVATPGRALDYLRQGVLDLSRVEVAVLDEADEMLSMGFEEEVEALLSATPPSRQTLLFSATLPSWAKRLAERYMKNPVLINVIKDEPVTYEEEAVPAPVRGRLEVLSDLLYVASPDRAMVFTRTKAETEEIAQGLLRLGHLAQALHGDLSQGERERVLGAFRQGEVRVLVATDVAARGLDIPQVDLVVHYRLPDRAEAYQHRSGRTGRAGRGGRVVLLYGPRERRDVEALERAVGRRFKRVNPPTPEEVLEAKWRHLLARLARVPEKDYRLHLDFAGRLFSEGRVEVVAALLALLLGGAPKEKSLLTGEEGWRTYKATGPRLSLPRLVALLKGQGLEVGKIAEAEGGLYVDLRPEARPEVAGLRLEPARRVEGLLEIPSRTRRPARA

Hera [3] = biological target: T1, Hera; test: fluorescence anisotropy
Hera_K51Q = biological target: T3, Hera_K51Q (Thermus thermophilus, UniProt O07897 1-510, K51Q); test: fluorescence anisotropy
T3 sequence: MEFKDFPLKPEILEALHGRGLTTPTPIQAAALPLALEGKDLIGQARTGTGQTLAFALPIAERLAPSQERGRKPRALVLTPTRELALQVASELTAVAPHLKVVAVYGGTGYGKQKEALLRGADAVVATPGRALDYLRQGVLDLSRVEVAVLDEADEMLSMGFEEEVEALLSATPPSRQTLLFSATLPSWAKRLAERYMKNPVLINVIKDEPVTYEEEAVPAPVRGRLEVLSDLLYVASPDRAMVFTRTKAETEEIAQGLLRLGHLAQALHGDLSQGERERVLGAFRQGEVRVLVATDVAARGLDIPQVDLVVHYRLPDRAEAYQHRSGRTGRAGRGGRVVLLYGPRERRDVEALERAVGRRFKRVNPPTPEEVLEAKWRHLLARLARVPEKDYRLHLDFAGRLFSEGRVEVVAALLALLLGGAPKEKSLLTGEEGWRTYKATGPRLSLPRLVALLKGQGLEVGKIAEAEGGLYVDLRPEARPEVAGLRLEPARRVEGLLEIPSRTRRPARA

[4] = biological target: T4, Hera/Hera_1-419 heterodimer (Thermus thermophilus, UniProt O07897;O07897 1-510;1-419); test: fluorescence anisotropy
T4 sequence 1: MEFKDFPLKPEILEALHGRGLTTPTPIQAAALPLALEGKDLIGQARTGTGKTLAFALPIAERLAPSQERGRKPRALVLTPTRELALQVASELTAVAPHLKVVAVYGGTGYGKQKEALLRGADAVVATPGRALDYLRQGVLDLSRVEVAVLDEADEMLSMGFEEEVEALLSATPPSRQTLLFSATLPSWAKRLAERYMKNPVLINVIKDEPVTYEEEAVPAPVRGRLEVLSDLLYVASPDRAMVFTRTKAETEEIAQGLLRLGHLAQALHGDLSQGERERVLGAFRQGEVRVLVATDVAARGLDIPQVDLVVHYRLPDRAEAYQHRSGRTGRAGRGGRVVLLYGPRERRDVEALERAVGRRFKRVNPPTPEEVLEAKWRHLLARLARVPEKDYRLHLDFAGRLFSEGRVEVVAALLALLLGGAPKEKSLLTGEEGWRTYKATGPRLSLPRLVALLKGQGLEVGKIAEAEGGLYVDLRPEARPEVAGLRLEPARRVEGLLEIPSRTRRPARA
T4 sequence 2: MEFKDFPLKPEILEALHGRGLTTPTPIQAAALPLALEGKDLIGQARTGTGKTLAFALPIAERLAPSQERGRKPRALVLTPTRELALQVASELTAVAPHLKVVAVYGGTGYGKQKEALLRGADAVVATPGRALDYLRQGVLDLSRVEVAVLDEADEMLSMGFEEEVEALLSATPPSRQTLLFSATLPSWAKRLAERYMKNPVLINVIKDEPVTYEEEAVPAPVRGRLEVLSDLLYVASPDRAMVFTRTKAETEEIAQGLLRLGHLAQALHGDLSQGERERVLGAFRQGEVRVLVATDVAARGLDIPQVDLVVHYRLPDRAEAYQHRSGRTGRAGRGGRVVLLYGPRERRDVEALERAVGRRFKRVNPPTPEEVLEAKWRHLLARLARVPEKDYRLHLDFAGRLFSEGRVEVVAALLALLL

[5] = biological target: T5, trans-heterodimer Hera_1-419/Hera_370-510 (Thermus thermophilus, UniProt O07897;O07897 1-419;370-510); test: fluorescence anisotropy
T5 sequence 1: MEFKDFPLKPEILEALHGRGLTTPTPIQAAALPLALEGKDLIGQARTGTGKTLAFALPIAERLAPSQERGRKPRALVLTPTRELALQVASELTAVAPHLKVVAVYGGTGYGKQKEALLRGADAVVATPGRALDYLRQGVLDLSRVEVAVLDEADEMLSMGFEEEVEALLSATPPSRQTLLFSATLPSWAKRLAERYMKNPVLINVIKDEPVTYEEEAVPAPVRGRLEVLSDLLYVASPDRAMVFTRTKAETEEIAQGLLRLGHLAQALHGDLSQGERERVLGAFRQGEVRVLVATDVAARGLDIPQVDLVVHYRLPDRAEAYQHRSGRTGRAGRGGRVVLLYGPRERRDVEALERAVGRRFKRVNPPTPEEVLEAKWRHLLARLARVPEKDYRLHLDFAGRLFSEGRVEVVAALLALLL
T5 sequence 2: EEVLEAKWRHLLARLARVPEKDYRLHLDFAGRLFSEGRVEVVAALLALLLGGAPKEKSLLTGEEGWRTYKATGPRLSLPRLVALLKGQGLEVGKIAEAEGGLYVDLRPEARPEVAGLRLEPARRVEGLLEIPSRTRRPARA

[6] = biological target: T6, cis-heterodimer Hera/Hera_208-419 (Thermus thermophilus, UniProt O07897;O07897 1-510;208-419); test: fluorescence anisotropy
T6 sequence 1: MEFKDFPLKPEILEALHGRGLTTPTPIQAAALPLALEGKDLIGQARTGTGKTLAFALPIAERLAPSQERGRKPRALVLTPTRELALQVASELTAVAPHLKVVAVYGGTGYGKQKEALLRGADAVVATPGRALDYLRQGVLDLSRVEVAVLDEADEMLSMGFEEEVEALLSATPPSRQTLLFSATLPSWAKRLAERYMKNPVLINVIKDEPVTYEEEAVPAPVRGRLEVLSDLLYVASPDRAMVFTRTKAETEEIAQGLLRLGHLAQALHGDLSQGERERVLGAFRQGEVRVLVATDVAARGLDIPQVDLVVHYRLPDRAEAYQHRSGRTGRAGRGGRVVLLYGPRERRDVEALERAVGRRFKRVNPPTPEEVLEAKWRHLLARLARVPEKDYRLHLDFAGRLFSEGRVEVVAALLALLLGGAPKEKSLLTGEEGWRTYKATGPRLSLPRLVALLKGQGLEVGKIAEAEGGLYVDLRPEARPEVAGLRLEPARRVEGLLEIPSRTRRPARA
T6 sequence 2: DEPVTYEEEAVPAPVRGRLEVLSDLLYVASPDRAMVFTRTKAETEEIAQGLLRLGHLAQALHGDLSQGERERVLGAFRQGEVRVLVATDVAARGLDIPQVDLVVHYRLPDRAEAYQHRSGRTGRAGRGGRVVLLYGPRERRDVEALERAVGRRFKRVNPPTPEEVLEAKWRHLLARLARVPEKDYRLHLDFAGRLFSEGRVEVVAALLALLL

[7] = biological target: T6, cis-heterodimer Hera/Hera_208-419; test: stopped-flow fluorescence

B1: fl-32/9mer (structured_RNA)
RNA 1: GCAGGUCCCAAGGGUUGGGCUGUUCGCCCAUU
RNA 2: UUGGGACCU
B1 was tested, and the Kd (Hera [1]) was 3 ± 1 µM, the Kd [2] was 2.5 ± 0.4 µM and the Kd (Hera [3]) was 2 ± 0.3 µM. For the same binder, the Kd (Hera_K51Q) was 2.1 ± 0.4 µM, the Kd [4] was 3 ± 0.3 µM and the Kd [5] was 16 ± 6 µM. For the same binder, the Kd [6] was 1.4 ± 0.5 µM and the Kd [7] was 1.8 ± 0.8 µM.
